Legend:
[1] = target: IgEs from a pool of sera from patients allergic to birch pollen and apple; assay: ELISA inhibition, serum pool pre-incubated with 0.3125 µg/ml inhibitor; competitor: wt Mal d 1 adsorbed on wells
[2] = target: IgEs from a pool of sera from patients allergic to birch pollen and apple; assay: ELISA inhibition, serum pool pre-incubated with 0.625 µg/ml inhibitor; competitor: wt Bet v 1 adsorbed on wells
[3] = target: IgEs from a pool of sera from patients allergic to birch pollen and apple; assay: ELISA inhibition, serum pool pre-treated with 0.625 µg/ml inhibitor; competitor: wt Bet v 1 adsorbed on wells
[4] = target: IgE of patient serum 2; assay: ELISA inhibition, serum 2 pre-incubated with 1.25 µg/ml inhibitor; competitor: wt Mal d 1 adsorbed on wells
[5] = target: IgE of patient serum 1; assay: ELISA inhibition, serum 1 pre-incubated with 1.25 µg/ml inhibitor; competitor: wt Mal d 1 adsorbed on wells
[6] = target: IgE of patient serum 3; assay: ELISA inhibition, serum 3 pre-incubated with 1.25 µg/ml inhibitor; competitor: wt Bet v 1 adsorbed on wells
[7] = target: specific IgE contained in the sera of 7 patients allergic to birch and apple; assay: ELISA inhibition, 7 sera pre-incubated with 1.25 µg/ml inhibitor; competitor: wt Mal d 1 adsorbed on wells
[8] = target: IgE of patient serum 6; assay: ELISA inhibition, serum 6 pre-incubated with 1.25 µg/ml inhibitor; competitor: wt Mal d 1 adsorbed on wells
[9] = target: IgE of patient serum 3; assay: ELISA inhibition, serum 3 pre-incubated with 1.25 µg/ml inhibitor; competitor: wt Mal d 1 adsorbed on wells
[10] = target: IgE of patient serum 7; assay: ELISA inhibition, serum 7 pre-incubated with 1.25 µg/ml inhibitor; competitor: wt Mal d 1 adsorbed on wells
[11] = target: IgE of patient serum 5; assay: ELISA inhibition, serum 5 pre-incubated with 1.25 µg/ml inhibitor; competitor: wt Bet v 1 adsorbed on wells
[12] = target: IgE of patient serum 5; assay: ELISA inhibition, serum 5 pre-incubated with 1.25 µg/ml inhibitor; competitor: wt Mal d 1 adsorbed on wells
[13] = target: IgE of patient serum 2; assay: ELISA inhibition, serum 2 pre-incubated with 1.25 µg/ml inhibitor; competitor: wt Bet v 1 adsorbed on wells
[14] = target: specific IgE contained in the sera of 7 patients allergic to birch and apple; assay: ELISA inhibition, 7 sera pre-incubated with 1.25 µg/ml inhibitor; competitor: wt Bet v 1 adsorbed on wells
[15] = target: IgE of patient serum 7; assay: ELISA inhibition, serum 7 pre-incubated with 1.25 µg/ml inhibitor; competitor: wt Bet v 1 adsorbed on wells
[16] = target: IgE of patient serum 1; assay: ELISA inhibition, serum 1 pre-incubated with 1.25 µg/ml inhibitor; competitor: wt Bet v 1 adsorbed on wells
[17] = target: IgE of patient serum 4; assay: ELISA inhibition, serum 4 pre-incubated with 1.25 µg/ml inhibitor; competitor: wt Mal d 1 adsorbed on wells
[18] = target: IgE of patient serum 4; assay: ELISA inhibition, serum 4 pre-incubated with 1.25 µg/ml inhibitor; competitor: wt Bet v 1 adsorbed on wells
[19] = target: IgE of patient serum 6; assay: ELISA inhibition, serum 6 pre-incubated with 1.25 µg/ml inhibitor; competitor: wt Bet v 1 adsorbed on wells
[20] = target: IgEs from a pool of sera from patients allergic to birch pollen and apple; assay: ELISA inhibition, serum pool pre-treated with 0.3125 µg/ml inhibitor; competitor: wt Mal d 1 adsorbed on wells

| Binder | % inhibition of Mal d 1-IgE binding [4] | % inhibition of Mal d 1-IgE binding [5] | % inhibition of Bet v 1-IgE binding [6] | mean % inhibition of Mal d 1-IgE binding (7 sera) [7] | % inhibition of Mal d 1-IgE binding [8] | % inhibition of Mal d 1-IgE binding [9] | % inhibition of Mal d 1-IgE binding [10] | % inhibition of Bet v 1-IgE binding [11] | % inhibition of Mal d 1-IgE binding [12] | % inhibition of Bet v 1-IgE binding [13] | mean % inhibition of Bet v 1-IgE binding (7 sera) [14] | % inhibition of Bet v 1-IgE binding [15] | % inhibition of Bet v 1-IgE binding [16] | % inhibition of Mal d 1-IgE binding [17] | % inhibition of Bet v 1-IgE binding [18] | % inhibition of Bet v 1-IgE binding [19] | also measured |
| --- | --- | --- | --- | --- | --- | --- | --- | --- | --- | --- | --- | --- | --- | --- | --- | --- | --- |
| hypoallergenic Mal d 1 variant with two substitutions, positions 25 and 78 (SEQ ID NO: 2) (protein) HHHHHHGVYTFENEFTSEIPPSRLFKAFVLAADNLIPKIAPQAIKQAEILEGDGGPGTIKKITFGEGSQYGYVKHKIDSVDEAAYSYAYTLIEGDALTDTIEKVSYETKLVASGSGSIIKSISHYHTKGDVEIKEEHVKAGKEKAHGLFKLIESYLKGHPDAYN | – | – | – | – | – | – | – | – | – | – | – | – | – | – | – | – | % inhibition of wt Mal d 1-IgE binding [1]: 25.4%; % inhibition of wt Bet v 1-IgE binding [2]: 4.2% |
| Mal d 1 variant with the single substitution Asn 78 in Ala (SEQ ID NO: 11) (protein) HHHHHHGVYTFENEFTSEIPPSRLFKAFVLDADNLIPKIAPQAIKQAEILEGDGGPGTIKKITFGEGSQYGYVKHKIDSVDEAAYSYAYTLIEGDALTDTIEKVSYETKLVASGSGSIIKSISHYHTKGDVEIKEEHVKAGKEKAHGLFKLIESYLKGHPDAYN | – | – | – | – | – | – | – | – | – | – | – | – | – | – | – | – | % inhibition of wt Bet v 1-IgE binding [3]: 32.1%; % inhibition of SEQ ID NO:1-IgE binding [1]: 19.7% |
| mixture of the single wt allergens (wt Bet v 1 and wt Mal d 1) (protein) chain 1: HHHHHHGVFNYETETTSVIPAARLFKAFILDGDNLFPKVAPQAISSVENIEGNGGPGTIKKISFPEGFPFKYVKDRVDEVDHTNFKYNYSVIEGGPIGDTLEKISNEIKIVATPDGGSILKINNKYHTKGDHEVKAEQIKASKEMGETLLRAVESYLLAHSDAYN chain 2: HHHHHHGVYTFENEFTSEIPPSRLFKAFVLDADNLIPKIAPQAIKQAEILEGDGGPGTIKKITFGEGSQYGYVKHKIDSVDEANYSYAYTLIEGDALTDTIEKVSYETKLVASGSGSIIKSISHYHTKGDVEIKEEHVKAGKEKAHGLFKLIESYLKGHPDAYN | 93.9% | 95.5% | 90.9% | 82.8% | 73.7% | 80.5% | 70.3% | 91.6% | 88.3% | 96.6% | 79.9% | 36.8% | 97.1% | 77.3% | 81.2% | 65.2% | – |
| mixture of the two mutagenised allergens (mut Bet v 1-SEQ ID NO:6 and mut Mal d 1-SEQ ID NO:2) (protein) chain 1: HHHHHHGVFNYETETTSVIPAARLFKAFILDGDNLFPKVAPQAISSVENIEGNGGPGTIAKISFPEGFPFKYVKDRVDEVDHTNFKYNYSVIEGGPIGDTLEKISNEIKIVATPDGGSILAINNKYHTAGDHEVKAEQIKASKEMGETLLRAVESYLLAHSDAYN chain 2: HHHHHHGVYTFENEFTSEIPPSRLFKAFVLAADNLIPKIAPQAIKQAEILEGDGGPGTIKKITFGEGSQYGYVKHKIDSVDEAAYSYAYTLIEGDALTDTIEKVSYETKLVASGSGSIIKSISHYHTKGDVEIKEEHVKAGKEKAHGLFKLIESYLKGHPDAYN | 42.4% | 76.7% | 52.3% | 51.6% | 53.9% | 49% | 65.6% | 41% | 27.6% | 72.8% | 53.3% | 20.6% | 88.4% | 46% | 56.5% | 41.8% | – |
| wild-type Bet v 1-Mal d 1 hybrid molecule (SEQ ID NO: 3) (protein) HHHHHHGVFNYETETTSVIPAARLFKAFILDGDNLFPKVAPQAISSVENIEGNGGPGTIKKISFPEGFPFKYVKDRVDEVDHTNFKYNYSVIEGGPIGDTLEKISNEIKIVATPDGGSILKINNKYHTKGDHEVKAEQIKASKEMGETLLRAVESYLLAHSDAYNEFGVYTFENEFTSEIPPSRLFKAFVLDADNLIPKIAPQAIKQAEILEGDGGPGTIKKITFGEGSQYGYVKHKIDSVDEANYSYAYTLIEGDALTDTIEKVSYETKLVASGSGSIIKSISHYHTKGDVEIKEEHVKAGKEKAHGLFKLIESYLKGHPDAYN | 84.5% | 92% | 76.2% | 74.6% | 70.5% | 75.1% | 60.6% | 50.8% | 68% | 85.1% | 63.3% | 15.9% | 93.6% | 71.3% | 61.7% | 56.6% | – |
| mutant Bet v 1-Mal d 1 hybrid molecule (SEQ ID NO: 4) (protein) HHHHHHGVFNYETETTSVIPAARLFKAFILDGDNLFPKVAPQAISSVENIEGNGGPGTIAKISFPEGFPFKYVKDRVDEVDHTNFKYNYSVIEGGPIGDTLEKISNEIKIVATPDGGSILAINNKYHTAGDHEVKAEQIKASKEMGETLLRAVESYLLAHSDAYNEFGVYTFENEFTSEIPPSRLFKAFVLAADNLIPKIAPQAIKQAEILEGDGGPGTIKKITFGEGSQYGYVKHKIDSVDEAAYSYAYTLIEGDALTDTIEKVSYETKLVASGSGSIIKSISHYHTKGDVEIKEEHVKAGKEKAHGLFKLIESYLKGHPDAYN | 41.9% | 91% | 35.9% | 63.6% | 70.8% | 66.3% | 60.4% | 7.8% | 50.8% | 36.4% | 32.1% | 18.2% | 90.2% | 64.3% | 35.9% | 0% | – |
| wild-type Mal d 1, major allergen of Malus domestica (SEQ ID NO: 1) (protein) HHHHHHGVYTFENEFTSEIPPSRLFKAFVLDADNLIPKIAPQAIKQAEILEGDGGPGTIKKITFGEGSQYGYVKHKIDSVDEANYSYAYTLIEGDALTDTIEKVSYETKLVASGSGSIIKSISHYHTKGDVEIKEEHVKAGKEKAHGLFKLIESYLKGHPDAYN | – | – | – | – | – | – | – | – | – | – | – | – | – | – | – | – | % inhibition of wt Mal d 1-IgE binding [20]: 93.3%; % inhibition of wt Bet v 1-IgE binding [2]: 46% |
| wild-type Bet v 1, major allergen of Betula verrucosa pollen (SEQ ID NO: 5) (protein) HHHHHHGVFNYETETTSVIPAARLFKAFILDGDNLFPKVAPQAISSVENIEGNGGPGTIKKISFPEGFPFKYVKDRVDEVDHTNFKYNYSVIEGGPIGDTLEKISNEIKIVATPDGGSILKINNKYHTKGDHEVKAEQIKASKEMGETLLRAVESYLLAHSDAYN | – | – | – | – | – | – | – | – | – | – | – | – | – | – | – | – | % inhibition of wt Bet v 1-IgE binding [3]: 94% |
